T1: mouse ECD-DDR1-Fc (mouse; human, UniProt Q03146 22-414)
T1 construct: also called mouse DDR1-ECD; wild-type mouse DDR1-ECD; not shown: human IgG1 Fc of the vector pFuse-hIgG1-Fc1 (Invivogen)
T1 sequence: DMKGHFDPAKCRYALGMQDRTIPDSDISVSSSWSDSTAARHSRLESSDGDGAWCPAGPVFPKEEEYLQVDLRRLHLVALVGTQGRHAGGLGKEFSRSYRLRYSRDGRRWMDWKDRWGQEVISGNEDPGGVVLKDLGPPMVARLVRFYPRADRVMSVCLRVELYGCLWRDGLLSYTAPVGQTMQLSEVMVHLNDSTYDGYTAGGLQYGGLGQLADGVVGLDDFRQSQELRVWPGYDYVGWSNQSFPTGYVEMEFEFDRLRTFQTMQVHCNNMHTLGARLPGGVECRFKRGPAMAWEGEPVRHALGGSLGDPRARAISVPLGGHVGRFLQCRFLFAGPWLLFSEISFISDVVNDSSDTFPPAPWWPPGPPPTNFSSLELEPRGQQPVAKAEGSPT

T2: human DDR2 stably expressed on HEK293 cells (human, UniProt Q16832 22-855)
T2 construct: whole, on cells; also called hDDR2
T2 sequence (looked up): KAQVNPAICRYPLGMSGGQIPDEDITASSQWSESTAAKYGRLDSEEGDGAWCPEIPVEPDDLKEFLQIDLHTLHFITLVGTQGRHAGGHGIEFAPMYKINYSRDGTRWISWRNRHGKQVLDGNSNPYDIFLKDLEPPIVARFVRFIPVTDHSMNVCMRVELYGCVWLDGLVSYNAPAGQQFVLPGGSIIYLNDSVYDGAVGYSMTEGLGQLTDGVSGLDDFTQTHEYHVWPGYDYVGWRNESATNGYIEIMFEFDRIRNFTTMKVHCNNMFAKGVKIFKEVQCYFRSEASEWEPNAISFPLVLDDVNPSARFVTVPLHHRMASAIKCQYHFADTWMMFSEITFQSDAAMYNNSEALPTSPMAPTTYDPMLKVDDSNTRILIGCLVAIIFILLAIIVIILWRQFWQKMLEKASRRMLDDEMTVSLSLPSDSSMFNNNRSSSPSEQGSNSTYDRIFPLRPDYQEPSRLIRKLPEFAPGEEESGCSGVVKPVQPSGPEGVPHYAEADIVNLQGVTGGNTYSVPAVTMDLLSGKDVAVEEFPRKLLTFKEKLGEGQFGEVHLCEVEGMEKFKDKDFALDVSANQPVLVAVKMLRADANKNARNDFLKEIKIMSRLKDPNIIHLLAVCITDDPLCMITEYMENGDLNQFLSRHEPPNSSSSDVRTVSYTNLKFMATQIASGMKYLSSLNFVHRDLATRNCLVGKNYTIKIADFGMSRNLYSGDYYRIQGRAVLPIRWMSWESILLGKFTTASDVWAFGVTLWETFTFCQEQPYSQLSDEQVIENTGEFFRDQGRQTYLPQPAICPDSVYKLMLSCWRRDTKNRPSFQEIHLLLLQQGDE

B1: AB2040 (antibody, V domains shown)
VH: EVMLVESGGGLVKPGGSLKLSCAASGFTFSNYAMSWVRQTPEKRLEWVAKTSSGDTYTYYPDSVKGRFTISRDNAKNTLYLQMTSLRSEDTAIYYCARQDYYGITPWFFDVWGAGTTVTVSS
VL: ENVLTQSPAIMSASPGEKVTMTCRASSSVSSIYLHWYQQKSGASPKLWIYSTSNLASGVPARFSGSGSGTSYSLTITSVEAEDAATYYCQQYSGYPLITFGAGTKLELKR
notes: mouse hybridoma mAb
B2: AB2073 (antibody, V domains shown)
VH: B1 VH
VL: B1 VL
notes: mouse hybridoma mAb
B3: AB2054 (antibody, V domains shown)
VH: B1 VH
VL: B1 VL
notes: mouse hybridoma mAb
B4: AB2003 (antibody, V domains shown)
VH: DVHLQESGPDLVKPSQSLSLTCTVTDYSITSGYGWHWIRQFPGNKLEWMGYIHYGGSTKYNSSLKSRISITRDTSKNQFFLQLKSVTTDDTGTYYCATSGNYGFAYWGQGTLVTVSA
VL: DIVLTQSPTSLAVSLGQRATMSCRASESVDDYGTSFMHWYQQKPGQPPKLLIYRASNLESGIPARFSGSGSRADFTLSINPVEPDDVATYYCQQSNEDPFTFGSGTKLEIKR
notes: mouse hybridoma mAb
B5: AB2019 (antibody, V domains shown)
VH: QVQLKQSGPGLVQPSQSLSITCTVSGFSFTGYGIHWVRQSPGKGLEWLGVIWSGGITDYNAAFISRLSISMDSSKGQVFFKMNSLQANDTAIYYCARRSTTVVADYAMDYWGQGTSVTVSS
VL: SIVMTQTPKFLLVSAGDRVTITCKASQSVSNDVAWYQQKPGQSPKLLIYYASNRYTGVPDRFTGSGYGTDFTFTINTVQAEDLAVYFCQQDYTSPLTFGAGTKLELKR
notes: mouse hybridoma mAb
B6: AB2032 (antibody, V domains shown)
VH: B5 VH
VL: B5 VL
notes: mouse hybridoma mAb

Biological target: T1, mouse ECD-DDR1-Fc
Assay: ELISA, coated antigen
Procedure: (§1) In this study, ELISA was used to determine the affinity of murine anti-DDR1 monoclonal antibodies to the extracellular domain (ECD) of either human or murine DDR1. A 96-well MaxiSorb ELISA plates (Nunc) were coated with 2 μg/mL of one of three purified recombinant tagged proteins: human ECD-DDR1-His protein, human ECD-DDR1-Fc, or mouse ECD-DDR1-Fc overnight at 4° C. The next day, the plates were blocked with 5% bovine serum albumin (BSA, Jackson Immunoresearch) prior to the addition of serially diluted anti-DDR1 monoclonal antibodies. Antibodies were incubated for 1 hr at room temperature. The binding of antibody to the antigen was detected by incubating samples with anti-mouse IgG-HRP (horse radish peroxidase) secondary detection antibody (Jackson Immunoresearch) for 1 hr. After a washing step, 3,3′,5,5″-tetramethylbenzidine (TMB) reagent was added for HRP to produce a colorimetric signal. The reaction was stopped by addition of 1M hydrochloric acid after 2 minutes and measured for absorbance (optical density, OD) at 450λ on a Molecular Devices plate reader. The OD values were plotted against antibody concentration and fitted using a using 4-parameter logistic equation in SoftMax software (Molecular Devices). The apparent affinity constant (KD) was taken from the C-parameter of the equation (y=(A−D)/(1+(x/C)̂B)+D). The apparent affinity constants were summarized (in some cases shown as average values) in Table 10 below. Lower value indicates higher binding affinity of the antibody to the antigen.

Row | Binder | binding result
1 | B1 | no binding
2 | B2 | no binding
3 | B3 | no binding
4 | B4 | no binding

Biological target: T2, human DDR2 stably expressed on HEK293 …
Assay: flow cytometry, HEK293/hDDR2
Procedure: Additional monoclonal antibodies were obtained from individual hybridomas in Example 1 and were characterized for their properties.
Cells were cultured in DMEM with 10% FBS and 0.8 mg/mL hygromycin. When cells reached 60-80% confluence, they were centrifuged at 1,200 rpm for 5 minutes, suspended in FACS buffer (1×PBS, 1% BSA), and aliquoted into a 96-well plate at 1×10⁶ cells per well. The anti-DDR1 monoclonal antibodies or appropriate isotype controls at 2 μg per 1×10⁶ cells were added and incubated at 4° C. for 1 hr. The cells were washed twice with FACS buffer then stained with the anti-IgG-PE secondary antibody at 10 μL per well at 4° C. for 1 hr. The cells were washed again and measured for the MFI values or signals using flow cytometry (LSR Fortessa instrument, BD Biosciences). Background MFI signals from vector-only cells (i.e. no DDR1 or DDR2 expression) was subtracted from those of the cells treated with antibodies. Higher MFI values or signals indicated increased binding or specificity of the anti-DDR1 antibodies to the DDR1 on the cell surface.

Row | Binder | MFI [MFI]
5 | B1 | 308
6 | B2 | 410
7 | B3 | 306
8 | B5 | 244
9 | B6 | 265
10 | B4 | 176

Biological target: human DDR1 (isoform B) stably expressed on HEK293 cells (human) (UniProt Q08345)
Assay: flow cytometry, HEK293/hDDR1

Sequence of human DDR1 (isoform B) stably expressed on HEK293 cells (human) (Q08345 19-913): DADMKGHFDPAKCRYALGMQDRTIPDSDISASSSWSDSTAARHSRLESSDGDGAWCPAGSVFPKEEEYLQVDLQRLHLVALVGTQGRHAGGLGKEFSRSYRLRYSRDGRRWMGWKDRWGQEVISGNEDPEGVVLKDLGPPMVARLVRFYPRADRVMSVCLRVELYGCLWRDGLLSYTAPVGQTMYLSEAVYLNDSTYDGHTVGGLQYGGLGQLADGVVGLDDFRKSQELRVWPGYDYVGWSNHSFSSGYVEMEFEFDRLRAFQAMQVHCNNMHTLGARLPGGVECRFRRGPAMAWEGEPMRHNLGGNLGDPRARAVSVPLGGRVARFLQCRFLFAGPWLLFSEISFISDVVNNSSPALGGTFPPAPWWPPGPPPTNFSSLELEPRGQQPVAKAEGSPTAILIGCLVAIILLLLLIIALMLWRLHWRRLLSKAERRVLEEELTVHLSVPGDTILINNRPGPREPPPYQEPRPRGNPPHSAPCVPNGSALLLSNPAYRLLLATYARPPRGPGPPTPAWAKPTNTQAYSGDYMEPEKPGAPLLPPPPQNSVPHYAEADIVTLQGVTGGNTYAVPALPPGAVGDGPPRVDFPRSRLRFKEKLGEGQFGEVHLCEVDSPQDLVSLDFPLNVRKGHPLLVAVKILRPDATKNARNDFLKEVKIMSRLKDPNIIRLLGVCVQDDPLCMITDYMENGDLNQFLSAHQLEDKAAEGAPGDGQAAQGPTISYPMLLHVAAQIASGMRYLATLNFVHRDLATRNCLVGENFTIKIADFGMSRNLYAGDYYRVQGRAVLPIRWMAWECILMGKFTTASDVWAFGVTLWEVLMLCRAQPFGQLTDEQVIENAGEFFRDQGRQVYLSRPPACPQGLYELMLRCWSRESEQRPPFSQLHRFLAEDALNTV

Row | Binder | MFI [MFI]
11 | B1 | 13700
12 | B2 | 16200
13 | B3 | 15500
14 | B5 | 12600
15 | B6 | 13700
16 | B4 | 15000

Biological target: DDR1 endogenously expressed on human cancer cell lines (T47D, HCT-116, A431) (human) (UniProt Q08345)
Assay: flow cytometry, HCT116 cells

Row | Binder | MFI [MFI]
17 | B1 | 2210
18 | B2 | 1690
19 | B3 | 1530
20 | B5 | 1490
21 | B6 | 1900
22 | B4 | 1410

Biological target: DDR1 with a ProLink Tag (PK) in engineered U20S cells (DiscoveRx), Q08345
Assay: cell-based or functional assay

Row | Binder | Mean EC50, DDR1 Tyr513 phosphorylation assay (U20S) [pM]
23 | B5 | 6600
24 | B6 | 7720
25 | B4 | 3000

Biological target: DDR1 endogenously expressed on human cancer cell lines (T47D, HCT-116, A431) (human) (UniProt Q08345)
Assay: flow cytometry, T47D cells

Row | Binder | MFI [MFI]
26 | B1 | 2810
27 | B2 | 6050
28 | B3 | 5930
29 | B5 | 4950
30 | B6 | 6820
31 | B4 | 6100

Biological target: DDR1 endogenously expressed on human cancer cell lines (T47D, HCT-116, A431) (human) (UniProt Q08345)
Assay: cell-based or functional assay

Row | Binder | EC50, DDR1 phospho-specific ELISA (T47D) [pM] | NPI of cluster formation at 66 nM (A431 cells) [%] | Maximal inhibition, DDR1 phospho-specific ELISA (T47D) [%] | EC50, cluster formation assay (A431 cells) [pM]
32 | B1 | 340 | 3.6 | – | –
33 | B2 | 450 | -0.2 | – | –
34 | B3 | 360 | 3.6 | – | –
35 | B5 | 660 | 113 | 100 | –
36 | B6 | 640 | 103 | 100 | 6890
37 | B4 | 420 | 128 | 100 | 2380

Biological target: T3, human ECD-DDR1-His protein (human, UniProt Q08345 21-416)
T3 construct: also called huDDR1-ECD-His; DDR1ECD-6Xhis; not shown: His tag
Assay: ELISA, coated antigen, apparent KD
Procedure: as §1

Row | Binder | Kd [pM]
38 | B1 | 115
39 | B2 | 200
40 | B3 | 154
41 | B5 | 372
42 | B6 | 500
43 | B4 | 153

Biological target: T4, DDR1ECD-Fc (R&D Systems, Catalog #2396-DR) (human, UniProt Q08345 21-416)
T4 construct: range 21-416; construct as described for the bought immunogen; also called human ECD-DDR1-Fc; Fc-ECD-DR1; not shown: human IgG1, Pro100-Lys330
Assay: ELISA, coated antigen, apparent KD
Procedure: as §1

Row | Binder | Kd [pM]
44 | B1 | 254
45 | B2 | 209
46 | B3 | 310
47 | B5 | 324
48 | B6 | 596
49 | B4 | 216
